B1: F1*; the commonest letter at each place (parent)
chain: GAGACCGCAACTGAAAAGTTGTTATCACTTGTCGTAAGACACTTTGGATGGGTTGAAGTTCTGCACGTAGAAGCAAAAGGC
B2: F1*; a variant is named by its letters at N, in order (parent)
chain: GAGACCGCAACTGAAAAGTTGTTATCACTTGTCGNANNNNNNTTNGNNNGGNTNNNGTTCTGCACGTAGAAGCAAAAGGC
B3: F1*; a variant is named by its letters at N, in order (parent)
chain: GAGACCGCAACTGAAAAGTTGTTATCNNNNNNNNAANNNNNTTNGNNGGGTTGAAGTTCTGCACGTAGAAGCAAAAGGC

Variants of: B1
Test: fraction ligated after 30 min (ligated reads / total reads); higher = more ligase activity
Details: with F1*sub RNA substrate (template-directed ligation), 42 °C
Protocol: (§1)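 Chip-synthesised pool of F1* ligase ribozyme variants (all single and double substitutions, single, double and triple deletions in the catalytic core and GAA bulge, plus designed variants) was transcribed with T7 and reacted as a pool with excess substrate F1*sub for 30 min at 42 C in 50 mM EPPS pH 8.5, 25 mM MgCl2. Ligated and unligated bands were separated by PAGE, barcoded by RT and deep sequenced; fraction ligated = ligated reads / total reads per variant, relative activity = FL / FL of wild type (0.826). Sequences are the DNA template of the ribozyme.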

Variant | fraction ligated
G31C T44A | 0.775
T49C G50T | 0.714
T32C A41C | 0.755
A24C T25A | 0.793
A48G G55T | 0.686
C33G G38C | 0.829
T30G G55C | 0.793
A39C T43G | 0.79
G31T C42G | 0.809
T35G G46T | 0.784
G34T A39G | 0.808
G38T C42T | 0.851
C28A G55T | 0.8
T30C T44G | 0.812
T45G G50A | 0.0135
T23A A57G | 0.818
A27G G50A | 0.244
T23C T29C | 0.779
A39G C42T | 0.843
A36C A57T | 0.844
C28G G34C | 0.768
T32G A48C | 0.401
G34A C40T | 0.81

Variant | fraction ligated
G47A G55C | 0.422
T23C T32G | 0.827
T32G T35A | 0.814
G31T A36T | 0.785
C28A A36C | 0.806
T45G A56C | 0.187
T32A A41T | 0.825
C33G G47T | 0.409
A41T T45C | 0.428
T43A G50C | 0.153
C42T A57G | 0.812
T23G T25G | 0.738
T30C G31C T32C A39G C40G A41G | 0.867
A56C A57G | 0.0212
T29G T43C | 0.817
A36T A56C | 0.797
T30G T32G C33G G38C A39C A41C | 0.862
G51C | 0.812
C28A G47T | 0.361
C33T T45A | 0.75
T32A G38A | 0.861
T32A G38C | 0.82
T30C T32C | 0.726

Variant | fraction ligated
C26A A37C | 0.781
T32G C33G | 0.828
A37C A56G | 0.784
C42G A56G | 0.792
A37G T44A | 0.839
T23A G50C | 0.255
G34A G50C | 0.43
G34A G50A | 0.625
T29G A36T | 0.826
T32G G46A | 0.782
T29C G47C | 0.264
T23A A24T | 0.781
A24C T35C | 0.764
T25A T30A | 0.32
T29C C42G | 0.818
A24T T45G | 0.0472
A36G A37T | 0.872
A27T T35G | 0.804
T35G T43A | 0.819
T45A G47C | 0.217
A37C G50A | 0.616

Variants of: B2
Test: as above
Details: with F1*sub RNA substrate (template-directed ligation), 42 °C
Protocol: as §1

Variant | fraction ligated
TAGACACTGAGTGAA | 0.168
AGACACTGATGTGAA | 0.843
TAGACACTGATGTTA | 0.834
TAGACACTGATGTTG | 0.0257
TAGACACTGATGTTC | 0.0084
TAGACACTGATGTTT | 0.0147
TAGACACTATGTGAA | 0.782
TGACACTGATGTGAA | 0.849
TAGACCTGATGTGAA | 0.839
TAGACACTGATGTCA | 0.792
TAGACACTGATGTCG | 0.0205
TAGACACTGATGTCC | 0.0263
TAGACACTGATGTCT | 0.0184
TAGACACGATGTGAA | 0.799
TAGACACTGATGTAT | 0.762
TAGACACTGATGTAC | 0.56
TAGACACTGATGTAG | 0.773
TAGACACTGATGTAA | 0.834
TAGACACTGATTGAA | 0.703
TAGACACTGATGTGG | 0.352
TAGACACTGATGTGT | 0.349
TAGACACTGATGTGC | 0.802
TAGACACTGATGTGA | 0.848
TAGACACTGTGTGAA | 0.354
TAGAACTGATGTGAA | 0.821
TAGACATGATGTGAA | 0.829
TAACACTGATGTGAA | 0.832
TAGCACTGATGTGAA | 0.827

Variants of: B3
Test: as above
Details: with F1*sub RNA substrate (template-directed ligation), 42 °C
Protocol: as §1

Variant | fraction ligated
ACTTTCGTGACACTGA | 0.0557
ACTTTCGTGACACTGT | 0.0695
ACTGTCGTGACACTAT | 0.79
ACTTTCGTGACATGAT | 0.832
ACTTGTGTGACATGAT | 0.841
ACTTTCGTGACACGAT | 0.779
ACTTGTCTGACACTGA | 0.169
ACTTGTCTGACACTGT | 0.285
ATTGTCGTGAACTGAT | 0.838
ATTGTCGTGACACGAT | 0.806
ACTTGTCTGACACTAT | 0.775
ACTTGTCGACACTGAT | 0.822
ACTTGTGTGCACTGAT | 0.875
ACTGTCGTACACTGAT | 0.84
ACTTGCGTGACATGAT | 0.847
ATTGTCGTGACCTGAT | 0.79
CTTGTCGTGAACTGAT | 0.809
ACTTTCGTGACACTAT | 0.793
ACTTGCGTACACTGAT | 0.837
ATTGTCGTGCACTGAT | 0.777
ACTTGTGTGACCTGAT | 0.844
CTTGTCGTGACACTAT | 0.779
ACTTGTGTGACACTGT | 0.0697
ACTTGTGTGACACTGA | 0.0628

Variant | fraction ligated
ACTTGTGTGACACTAT | 0.797
ACTTTCGTGACCTGAT | 0.773
ACTTTCGTGAACTGAT | 0.873
ACTTGTGTACACTGAT | 0.86
ACTTGTCGGACATGAT | 0.831
ACTTGTCTGACATGAT | 0.834
ACTTGTCTGAACTGAT | 0.787
CTTGTCGTGACCTGAT | 0.786
ACTTTCGTACACTGAT | 0.811
ACTTGCGTGACACTGA | 0.128
ACTTGCGTGACACTGT | 0.143
CTTGTCGTACACTGAT | 0.772
ACTGTCGTGACACTGT | 0.694
ACTGTCGTGACACTGA | 0.13
ACTTGTCTGACACGAT | 0.786
CTTGTCGTGACACGAT | 0.788
ACTGTCGTGACACGAT | 0.812
ACTTGCGTGACCTGAT | 0.815
ACTTGTCGGACACTGT | 0.236
ACTTGTCGGACACTGA | 0.15
ACTTGCGTGACACTAT | 0.802
ACTTGCGTGACACGAT | 0.801
ACTTGTCTGCACTGAT | 0.797
ACTGTCGTGAACTGAT | 0.858

Variant | fraction ligated
ATTGTCGTACACTGAT | 0.799
ACTTGTCTACACTGAT | 0.817
CTTGTCGTGACACTGT | 0.346
CTTGTCGTGACACTGA | 0.00758
ACTTGTCGGCACTGAT | 0.78
CTTGTCGTGCACTGAT | 0.776
ACTTGTCGGACACTAT | 0.769
ACTTGTGTGACACGAT | 0.807
ACTGTCGTGCACTGAT | 0.833
ACTTGTCGGAACTGAT | 0.813
ACTGTCGTGACATGAT | 0.846
ACTGTCGTGACCTGAT | 0.849
ACTTTCGTGCACTGAT | 0.8
ACTTGTCGGACCTGAT | 0.801
ACTTGCGTGAACTGAT | 0.85
ACTTGTCTGACCTGAT | 0.783
ACTTGTGTGAACTGAT | 0.867
ATTGTCGTGACACTGT | 0.583
ATTGTCGTGACACTGA | 0.12
ACTTGCGTGCACTGAT | 0.856
CTTGTCGTGACATGAT | 0.794
ATTGTCGTGACACTAT | 0.776
ATTGTCGTGACATGAT | 0.811
ACTTGTCGGACACGAT | 0.775

Reference: the supplement of paper PMC6755084
